Assay results: publication PMC8017934
Values joined by “and” are separate entries in the source; they are usually repeats but may differ in a detail not shown here. Identical values can stand only once.

Tests used:
[1] = target: human 40S ribosomal subunit with the ybbR tag on RACK1, biotinylated or Cy5-labelled (human) (UniProt P63244)
[2] = target: human 40S ribosomal subunit with the ybbR tag on uS19, Cy3-labelled (human (endogenous in HEK293T)) (UniProt P62841)

Substance: SARS-CoV-2 NSP1(KH164-165AA) with an N-terminal ybbR tag, Cy3-labelled (from UniProt P0DTD1 1-180) (natural protein)
- Kd [1]: > 350 nM
- fraction of IRES–40S complexes bound at least once by NSP1 (≥∼5 s) [1]: 9%
- koff [1]: 0.14 s⁻¹

Substance: SARS-CoV-2 NSP1 with an N-terminal ybbR tag, fluorescently labelled (from UniProt P0DTD1 1-180) (natural protein)
- fraction of recruited 40S subunits with which NSP1 coassociated [2]: 57% and 60%

Substance: Bat-Hp-CoV NSP1 with an N-terminal ybbR tag, Cy3-labelled (natural protein)
- Kd [1]: < 1 nM
- fraction of IRES–40S complexes bound at least once by NSP1 (≥∼5 s) [1]: 89%
- koff [1]: < 0.002 s⁻¹
